Assay results: US20250388669A1 (published 2025)

T1: B7H3 (human, UniProt Q5ZPR3 29-466, limits assumed)
T1 sequence (looked up): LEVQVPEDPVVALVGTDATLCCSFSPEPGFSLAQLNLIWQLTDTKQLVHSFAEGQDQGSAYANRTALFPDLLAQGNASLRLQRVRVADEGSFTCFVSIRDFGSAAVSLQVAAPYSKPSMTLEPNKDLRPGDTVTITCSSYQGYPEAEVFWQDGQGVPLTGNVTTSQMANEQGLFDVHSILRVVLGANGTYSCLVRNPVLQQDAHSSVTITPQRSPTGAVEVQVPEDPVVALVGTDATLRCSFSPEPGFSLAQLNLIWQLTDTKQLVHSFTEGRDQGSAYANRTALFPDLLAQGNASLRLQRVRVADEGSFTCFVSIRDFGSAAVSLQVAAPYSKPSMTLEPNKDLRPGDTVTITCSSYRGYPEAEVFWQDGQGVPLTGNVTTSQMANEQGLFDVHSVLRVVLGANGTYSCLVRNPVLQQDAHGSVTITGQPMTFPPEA


Biological target: T1, B7H3
Test: ELISA or FCM (Example 2)

Binder | binding result
Ly2368 (other, Tri-specific antibody: B7H3 Fabs, central CD3 Fv, terminal CD137 Fv; It has no flexible linker) chain 1: QVQLVQSGAEVKKPGASVKVSCKASGYTFTSYVMHWVRQKPGQGLEWIGYINPYNEGTESTDKFKGRATMTSDKSTSTVYMELSSLRSEDTAVYYCASIYYGYEGTYFGVWGQGTLVTVSSASTKGPSVFPLAPSSKSTSGGTAALGCLVKDYFPEPVTVSWNSGALTSGVHTFPAVLQSSGLYSLSSVVTVPSSSLGTQTYICNVNHKPSNTKVDKKVEPKSCEVQLVESGGGLVQPGGSLRLSCAASGFTFSTYAMNWVRQAPGKGLEWVGRIRSKYNNYATYYADSVKGRFTISRDDSKNSLYLQMNSLKTEDTAVYYCVRHGNFGNSYVSWFAYWGQGTLVTVSSGGGGSDKTHTCPPCPAPEAAGPSVFLFPPKPKDTLMISRTPEVTCVVVDVSHEDPEVKFNWYVDGVEVHNAKTKPREEQYNSTYRVVSVLTVLHQDWLNGKEYKCKVSNKALPAPIEKTISKAKGQPREPQVYTLPPSREEMTKNQVSLWCLVKGFYPSDIAVEWESNGQPENNYKTTPPVLDSDGSFFLYSKLTVDKSRWQQGNVFSCSVMHEALHNHYTQKSLSLSPGGGGGSGGGGSGGGGSGGGGSQVQLVQSGAEVKKPGASVKVSCKASGYTFAGFEMHWVRQAPGQGLEWMGAIDPKTGGTDYNQKFKDRVTMTRDTSISTAYMELSRLRSDDTAVYYCARDLGYFDVWGQGTLVTVSS chain 2: QVQLVQSGAEVKKPGASVKVSCKASGYTFTSYVMHWVRQKPGQGLEWIGYINPYNEGTESTDKFKGRATMTSDKSTSTVYMELSSLRSEDTAVYYCASIYYGYEGTYFGVWGQGTLVTVSSASTKGPSVFPLAPSSKSTSGGTAALGCLVKDYFPEPVTVSWNSGALTSGVHTFPAVLQSSGLYSLSSVVTVPSSSLGTQTYICNVNHKPSNTKVDKKVEPKSCQAVVTQEPSLTVSPGGTVTLTCRSSTGAVTTSNYANWVQQKPGQAPRGLIGGTNKRAPWTPARFSGSLLGGKAALTITGAQAEDEADYYCALWYSNLWVFGGGTKLTVLGGGGSDKTHTCPPCPAPEAAGPSVFLFPPKPKDTLMISRTPEVTCVVVDVSHEDPEVKFNWYVDGVEVHNAKTKPREEQYNSTYRVVSVLTVLHQDWLNGKEYKCKVSNKALPAPIEKTISKAKGQPREPQVYTLPPSREEMTKNQVSLSCAVKGFYPSDIAVEWESNGQPENNYKTTPPVLDSDGSFFLVSKLTVDKSRWQQGNVFSCSVMHEALHNRFTQKSLSLSPGGGGGSGGGGSGGGGSGGGGSDIQMTQSPSSLSASVGDRVTITCRASQDIRSNLNWYQQKPGGAVKLLIYYTSRLHSGVPSRFSGSGSGTDYTLTISSLQPEDFATYFCQQSEKLPRTFGGGTKVEIR light: EIVLTQSPATLSLSPGERATLSCRASSSVSYMHWYQQKPGQAPRPWIYATSNLASGIPARFSGSRSGTDYTLTISSLEPEDFAVYYCQQWSSNTLTFGGGTKVEIKRTVAAPSVFIFPPSDEQLKSGTASVVCLLNNFYPREAKVQWKVDNALQSGNSQESVTEQDSKDSTYSLSSTLTLSKADYEKHKVYACEVTHQGLSSPVTKSFNRGEC | binds
Ly2384 (other, Tri-specific antibody: B7H3 Fabs, central CD3 Fv, terminal CD137 Fv; Flexible linker is G3S) chain 1: QVQLVQSGAEVKKPGASVKVSCKASGYTFTSYVMHWVRQKPGQGLEWIGYINPYNEGTESTDKFKGRATMTSDKSTSTVYMELSSLRSEDTAVYYCASIYYGYEGTYFGVWGQGTLVTVSSASTKGPSVFPLAPSSKSTSGGTAALGCLVKDYFPEPVTVSWNSGALTSGVHTFPAVLQSSGLYSLSSVVTVPSSSLGTQTYICNVNHKPSNTKVDKKVEPKSCGGGSEVQLVESGGGLVQPGGSLRLSCAASGFTFSTYAMNWVRQAPGKGLEWVGRIRSKYNNYATYYADSVKGRFTISRDDSKNSLYLQMNSLKTEDTAVYYCVRHGNFGNSYVSWFAYWGQGTLVTVSSGGGGSDKTHTCPPCPAPEAAGPSVFLFPPKPKDTLMISRTPEVTCVVVDVSHEDPEVKFNWYVDGVEVHNAKTKPREEQYNSTYRVVSVLTVLHQDWLNGKEYKCKVSNKALPAPIEKTISKAKGQPREPQVYTLPPSREEMTKNQVSLWCLVKGFYPSDIAVEWESNGQPENNYKTTPPVLDSDGSFFLYSKLTVDKSRWQQGNVFSCSVMHEALHNHYTQKSLSLSPGGGGGSGGGGSGGGGSGGGGSQVQLVQSGAEVKKPGASVKVSCKASGYTFAGFEMHWVRQAPGQGLEWMGAIDPKTGGTDYNQKFKDRVTMTRDTSISTAYMELSRLRSDDTAVYYCARDLGYFDVWGQGTLVTVSS chain 2: QVQLVQSGAEVKKPGASVKVSCKASGYTFTSYVMHWVRQKPGQGLEWIGYINPYNEGTESTDKFKGRATMTSDKSTSTVYMELSSLRSEDTAVYYCASIYYGYEGTYFGVWGQGTLVTVSSASTKGPSVFPLAPSSKSTSGGTAALGCLVKDYFPEPVTVSWNSGALTSGVHTFPAVLQSSGLYSLSSVVTVPSSSLGTQTYICNVNHKPSNTKVDKKVEPKSCGGGSQAVVTQEPSLTVSPGGTVTLTCRSSTGAVTTSNYANWVQQKPGQAPRGLIGGTNKRAPWTPARFSGSLLGGKAALTITGAQAEDEADYYCALWYSNLWVFGGGTKLTVLGGGGSDKTHTCPPCPAPEAAGPSVFLFPPKPKDTLMISRTPEVTCVVVDVSHEDPEVKFNWYVDGVEVHNAKTKPREEQYNSTYRVVSVLTVLHQDWLNGKEYKCKVSNKALPAPIEKTISKAKGQPREPQVYTLPPSREEMTKNQVSLSCAVKGFYPSDIAVEWESNGQPENNYKTTPPVLDSDGSFFLVSKLTVDKSRWQQGNVFSCSVMHEALHNRFTQKSLSLSPGGGGGSGGGGSGGGGSGGGGSDIQMTQSPSSLSASVGDRVTITCRASQDIRSNLNWYQQKPGGAVKLLIYYTSRLHSGVPSRFSGSGSGTDYTLTISSLQPEDFATYFCQQSEKLPRTFGGGTKVEIR light: EIVLTQSPATLSLSPGERATLSCRASSSVSYMHWYQQKPGQAPRPWIYATSNLASGIPARFSGSRSGTDYTLTISSLEPEDFAVYYCQQWSSNTLTFGGGTKVEIKRTVAAPSVFIFPPSDEQLKSGTASVVCLLNNFYPREAKVQWKVDNALQSGNSQESVTEQDSKDSTYSLSSTLTLSKADYEKHKVYACEVTHQGLSSPVTKSFNRGEC | binds
